This is an account of results in patent US20140323400A1 (ASSOCIATION FRANCAISE CONTRE LES MYOPATHIES, published 2014).

The target of the assay is T1, mature myostatin (UniProt O08689 268-376, limits assumed).
T1 construct: mature; also called MSTN
T1 sequence (looked up): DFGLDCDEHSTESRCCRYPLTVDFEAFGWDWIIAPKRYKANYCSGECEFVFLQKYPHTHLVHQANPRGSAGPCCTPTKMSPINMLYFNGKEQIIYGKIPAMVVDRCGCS
Kind of assay: ELISA, biotinylated peptide on coated myostatin, with or without zinc. The procedure:
For this, 3 μl of myostatin at a concentration of 100 ng/μl are taken up in 50 μl of carbonate buffer and added to each well of the assay plate (R&D Systems DY990). After an overnight incubation at 4° C., the plate is washed with 100 μl of PBS-Tween (0.05% Tween 20), then the blocking step to saturate non-specific sites is carried out for 2 hours at room temperature with 100 μl of PBS and 6% of milk per well. Five successive washes with 200 μl of PBS-Tween (0.05% Tween 20) are performed and increasing amounts of biotinylated fibromodulin peptides are then deposited (100 μl final in PBS) and the plate is incubated for 1 hour at 37° C. For the positive control, an antibody of goat anti-myostatin (≠AF788, R&D Systems), which was deposited in the control wells and incubated for 1 hour at 1/100th (0.1 mg/ml) was […]. The wells were then washed 5 times with PBS-Tween (0.05% Tween 20). […] After five washes, adding the peroxidase substrate, the TMB Substrate Reagent Set (Tetramehylbenzidine, OptEIA, ≠555214) allows the obtention of a colored reaction proportional to the quantity of HRP present in the wells. The reaction is stopped after 20 minutes by addition of sulfuric acid 2N, and the plate is read at 450 nm on a Discovery HT-R spectrophotometer (Bio-TEK).

The star is where a group is joined. Biotin = O=C1N[C@H]2[C@H](CS[C@H]2CCCCC(=O)*)N1

B1: Peptide Biotine-69-101 mFibromoduline mutated (Fmod mutated) (peptide)
peptide: Biotin-PPPEPRDCPQEADAPPNFPTAMYADNRNLKYLP-NH2
SMILES: CSCC[C@H](NC(=O)[C@H](C)NC(=O)[C@@H](NC(=O)[C@@H]1CCCN1C(=O)[C@H](Cc1ccccc1)NC(=O)[C@H](CC(N)=O)NC(=O)[C@@H]1CCCN1C(=O)[C@@H]1CCCN1C(=O)[C@H](C)NC(=O)[C@H](CC(=O)O)NC(=O)[C@H](C)NC(=O)[C@H](CCC(=O)O)NC(=O)[C@H](CCC(N)=O)NC(=O)[C@@H]1CCCN1C(=O)[C@H](CS)NC(=O)[C@H](CC(=O)O)NC(=O)[C@H](CCCNC(=N)N)NC(=O)[C@@H]1CCCN1C(=O)[C@H](CCC(=O)O)NC(=O)[C@@H]1CCCN1C(=O)[C@@H]1CCCN1C(=O)[C@@H]1CCCN1C(=O)CCCC[C@@H]1SC[C@@H]2NC(=O)N[C@@H]21)[C@@H](C)O)C(=O)N[C@@H](Cc1ccc(O)cc1)C(=O)N[C@@H](C)C(=O)N[C@@H](CC(=O)O)C(=O)N[C@@H](CC(N)=O)C(=O)N[C@@H](CCCNC(=N)N)C(=O)N[C@@H](CC(N)=O)C(=O)N[C@@H](CC(C)C)C(=O)N[C@@H](CCCCN)C(=O)N[C@@H](Cc1ccc(O)cc1)C(=O)N[C@@H](CC(C)C)C(=O)N1CCC[C@H]1C(N)=O
notes: also called mutated biotin mFmod peptide
B1: the binding result was “no binding”.
